Experimental data: patent US20160250307A1 (IMMATICS BIOTECHNOLOGIES, published 2016)
Square brackets hold non-standard residues; d marks the D form. Ends that are not written are not given here. pS = N[C@@H](COP(=O)(O)O)C(=O)O

B1: KLHEEIDRV (peptide)
peptide: KLHEEIDRV
B2: SLLHTIYEV (peptide)
peptide: SLLHTIYEV
B3: ALLGGNVRMML (peptide)
peptide: ALLGGNVRMML
B4: GVLPGLVGV (peptide)
peptide: GVLPGLVGV
B5: QQLDSKFLEQV (peptide)
peptide: QQLDSKFLEQV
B6: SLLEKAGPEL (peptide)
peptide: SLLEKAGPEL
B7: TLGQFYQEV (peptide)
peptide: TLGQFYQEV
B8: KLDAFVEGV (peptide)
peptide: KLDAFVEGV
B9: ATLNIIHSV (peptide)
peptide: ATLNIIHSV
B10: ALYGKTEVV (peptide)
peptide: ALYGKTEVV
B11: SLFQGVEFHYV (peptide)
peptide: SLFQGVEFHYV
B12: ILDDNMQKL (peptide)
peptide: ILDDNMQKL
B13: VLPNFLPYNV (peptide)
peptide: VLPNFLPYNV
B14: TLMDMRLSQV (peptide)
peptide: TLMDMRLSQV
B15: QLIDYERQL (peptide)
peptide: QLIDYERQL
B16: HLTEAIQYV (peptide)
peptide: HLTEAIQYV
B17: ALLEENSTPQL (peptide)
peptide: ALLEENSTPQL
B18: ALLAEGITWV (peptide)
peptide: ALLAEGITWV
B19: GQFPSYLETV (peptide)
peptide: GQFPSYLETV
B20: SLLSGRISTL (peptide)
peptide: SLLSGRISTL
B21: ALADVVHEA (peptide)
peptide: ALADVVHEA
B22: FLEETKATV (peptide)
peptide: FLEETKATV
B23: SLLEEPNVIRV (peptide)
peptide: SLLEEPNVIRV
B24: LLLPLLPPLSP (peptide)
peptide: LLLPLLPPLSP
B25: VLGEVKVGV (peptide)
peptide: VLGEVKVGV
B26: LLDDSLVSI (peptide)
peptide: LLDDSLVSI
B27: TVGGSEILFEV (peptide)
peptide: TVGGSEILFEV
B28: AILETAPKEV (peptide)
peptide: AILETAPKEV
B29: GLIHLEGDTV (peptide)
peptide: GLIHLEGDTV
B30: GLYGRTIEL (peptide)
peptide: GLYGRTIEL
B31: RLYDPASGTISL (peptide)
peptide: RLYDPASGTISL
B32: YLMEGSYNKV (peptide)
peptide: YLMEGSYNKV
B33: GLLDPNVKSIFV (peptide)
peptide: GLLDPNVKSIFV
B34: KILEETLYV (peptide)
peptide: KILEETLYV
B35: SLAEGTATV (peptide)
peptide: SLAEGTATV
B36: SLLPQLIEV (peptide)
peptide: SLLPQLIEV
B37: VLYPSLKEI (peptide)
peptide: VLYPSLKEI
B38: ILADTFIGV (peptide)
peptide: ILADTFIGV
B39: SLFGQDVKAV (peptide)
peptide: SLFGQDVKAV
B40: SLQESILAQV (peptide)
peptide: SLQESILAQV
B41: GLLAGDRLVEV (peptide)
peptide: GLLAGDRLVEV
B42: SLSAFLPSL (peptide)
peptide: SLSAFLPSL
B43: KLKETIQKL (peptide)
peptide: KLKETIQKL
B44: KLLDLSDSTSV (peptide)
peptide: KLLDLSDSTSV
B45: AMAEMKVVL (peptide)
peptide: AMAEMKVVL
B46: YQMDIQQEL (peptide)
peptide: YQMDIQQEL
B47: KLFSGDELLEV (peptide)
peptide: KLFSGDELLEV
B48: ILSGIGVSQV (peptide)
peptide: ILSGIGVSQV
B49: SLDGKAALTEL (peptide)
peptide: SLDGKAALTEL
B50: ALDPKANFST (peptide)
peptide: ALDPKANFST
B51: RVQEAIAEV (peptide)
peptide: RVQEAIAEV
B52: RVAS*PTSGV (peptide)
peptide: RVA[pS]PTSGV
notes: phosphopeptide from IRS2
B53: VLFQEALWHV (peptide)
peptide: VLFQEALWHV
B54: YIQDEINTI (peptide)
peptide: YIQDEINTI
B55: FLLEQPEIQV (peptide)
peptide: FLLEQPEIQV
B56: SLFSSPPEI (peptide)
peptide: SLFSSPPEI
B57: YLGEGPRMV (peptide)
peptide: YLGEGPRMV
B58: SLAEEKLQASV (peptide)
peptide: SLAEEKLQASV
B59: ALNENINQV (peptide)
peptide: ALNENINQV
B60: GLFNAELLEA (peptide)
peptide: GLFNAELLEA
B61: ALIEGAGILL (peptide)
peptide: ALIEGAGILL
B62: QLHDFVMSL (peptide)
peptide: QLHDFVMSL
B63: TLFYSLREV (peptide)
peptide: TLFYSLREV
B64: LLHGHIVEL (peptide)
peptide: LLHGHIVEL
B65: SVYDGKLLI (peptide)
peptide: SVYDGKLLI
B66: KIDEKNFVV (peptide)
peptide: KIDEKNFVV
B67: SVLDQKILL (peptide)
peptide: SVLDQKILL
B68: LLYEGKLTL (peptide)
peptide: LLYEGKLTL
B69: ILNVDGLIGV (peptide)
peptide: ILNVDGLIGV
B70: TLQDHLNSL (peptide)
peptide: TLQDHLNSL
B71: ALLRVTPFI (peptide)
peptide: ALLRVTPFI
B72: ALANQKLYSV (peptide)
peptide: ALANQKLYSV
B73: SLLESNKDLLL (peptide)
peptide: SLLESNKDLLL
B74: SLMGPVVHEV (peptide)
peptide: SLMGPVVHEV

Experiments:
HLA-A*02 [1] = biological target: HLA-A*02 (human); assay: UV-ligand exchange, anti-b2m ELISA; grade: exchange yield >=50%
HLA-A*02 [2] = biological target: HLA-A*02 (human); assay: UV-ligand exchange, anti-b2m ELISA; grade: exchange yield >=75%

Binder | peptide exchange yield (HLA-A*02 [1]) | peptide exchange yield (HLA-A*02 [2])
B1 | 50 to 75% | 
B2 | 50 to 75% | 
B3 | 50 to 75% | 
B4 | 50 to 75% | 
B5 | 50 to 75% | 
B6 | 50 to 75% | 
B7 |  | ≥ 75%
B8 | 50 to 75% | 
B9 | 50 to 75% | 
B10 | 50 to 75% | 
B11 | 50 to 75% | 
B12 | 50 to 75% | 
B13 | 50 to 75% | 
B14 | 50 to 75% | 
B15 | 50 to 75% | 
B16 | 50 to 75% | 
B17 | 50 to 75% | 
B18 | 50 to 75% | 
B19 | 50 to 75% | 
B20 | 50 to 75% | 
B21 | 50 to 75% | 
B22 | 50 to 75% | 
B23 |  | ≥ 75%
B24 | 50 to 75% | 
B25 |  | ≥ 75%

Binder | peptide exchange yield (HLA-A*02 [1]) | peptide exchange yield (HLA-A*02 [2])
B26 | 50 to 75% | 
B27 |  | ≥ 75%
B28 | 50 to 75% | 
B29 | 50 to 75% | 
B30 | 50 to 75% | 
B31 | 50 to 75% | 
B32 | 50 to 75% | 
B33 | 50 to 75% | 
B34 | 50 to 75% | 
B35 | 50 to 75% | 
B36 |  | ≥ 75%
B37 | 50 to 75% | 
B38 | 50 to 75% | 
B39 | 50 to 75% | 
B40 | 50 to 75% | 
B41 | 50 to 75% | 
B42 |  | ≥ 75%
B43 | 50 to 75% | 
B44 | 50 to 75% | 
B45 | 50 to 75% | 
B46 | 50 to 75% | 
B47 | 50 to 75% | 
B48 | 50 to 75% | 
B49 | 50 to 75% | 
B50 | 50 to 75% | 

Binder | peptide exchange yield (HLA-A*02 [1]) | peptide exchange yield (HLA-A*02 [2])
B51 | 50 to 75% | 
B52 | 50 to 75% | 
B53 | 50 to 75% | 
B54 | 50 to 75% | 
B55 | 50 to 75% | 
B56 | 50 to 75% | 
B57 | 50 to 75% | 
B58 | 50 to 75% | 
B59 | 50 to 75% | 
B60 | 50 to 75% | 
B61 | 50 to 75% | 
B62 |  | ≥ 75%
B63 | 50 to 75% | 
B64 | 50 to 75% | 
B65 |  | ≥ 75%
B66 | 50 to 75% | 
B67 | 50 to 75% | 
B68 |  | ≥ 75%
B69 | 50 to 75% | 
B70 | 50 to 75% | 
B71 | 50 to 75% | 
B72 | 50 to 75% | 
B73 | 50 to 75% | 
B74 | 50 to 75% | 
